According to the supplement of paper PMC9942255:
Values joined by “and” are separate entries in the source; they are usually repeats but may differ in a detail not shown here. Equal values may be shown once.

Tested on: Bacillus subtilis DB104 (SP-AmyQ fusion secretion)
Assay: AmyQ secretion efficiency, weighted average sort bin (1 = best secretion, 10 = worst) (bin number (weighted average, 1-10)); higher = lower secretion efficiency
Method in brief: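 In this assay, the secretion score is defined as the average bin number weighted by read frequency, normalised to beads per bin, with low-abundance sequences not counted. B. subtilis DB104 cells expressing mature AmyQ behind designed signal peptides (amyE-integrated) were enclosed with fluorescein-starch in ~65 nL alginate beads at about 0.3 cells per bead. Beads grew about 13 h at room temperature, were stained with nile red, and occupied beads went into 10 equally populated green/red fluorescence ratio bins by large-particle flow cytometry, whose amplicons were Illumina-sequenced.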

Sequence	AmyQ secretion efficiency
MRFTKVVGFLSVLGLAAEDEEEEAQAEKA	7.84
MRFTKVVGFLSVLGLAAKKKLTAQAEKA	7.51
MRFTKVVGFLSVLGLAAKKRKRRAQAEKA	7.6
MRFTKVVGFLSVLGLAASSILLLFSIVFPLTAQAEKA	2.15
MRFTKVVGFLSVLGLAATTTFIVFPLTAQAEKA	1.5
MRFTKVVGFLSVLGLAAVAQAEKA	5.78
MRFTKVVGFLSVLGLAAVFPLTAQAADD	3.85
MRFTKVVGFLSVLGLAAVFPLTAQAAKR	5.46
MRFTKVVGFLSVLGLAAVFPLTAQAAPK	1.91
MRFTKVVGFLSVLGLAAVFPLTAQAEED	1.95
MRFTKVVGFLSVLGLAAVFPLTAQARKR	7.26
MRFTKVVGFLSVLGLAAVFPLTAQGEKA	2.12
MRFTKVVGFLSVLGLAAVFPLTAQREKA	5.37
MRFTKVVGFLSVLGLAAVFPLTAQTEKA	5.69
MRFTKVVGFLSVLGLAAVFPLTASSAAQAEKA	1.25
MRFTKVVGFLSVLGLAAVFPLTCQAEKA	2.19
MRFTKVVGFLSVLGLAAVFPLTSQAEKA	4.09
MRFTKVVGFLSVLGLAAVFPLTTQAEKA	4.74
MRFTKVVGFLSVLGLAAVFPLTVQAEKA	3.18
MRFTKVVGFLSVLGVFPLTAQAEKA	5.6
MRGKSAKRLSLIMLIAGFLISFSFQM	7.38
MRGKSAVLLSLIMLIAGFLDDDEEDSFSFQM	8.01

Sequence	AmyQ secretion efficiency
MRGKSAVLLSLIMLIAGFLDEESFSFQM	5.97
MRGKSAVLLSLIMLIAGFLIDFSFQM	7.67
MRGKSAVLLSLIMLIAGFLIEFSFQM	8.38
MRGKSAVLLSLIMLIAGFLIHFSFQM	6.42
MRGKSAVLLSLIMLIAGFLIISFSFQM	8.29
MRGKSAVLLSLIMLIAGFLINFSFQM	6.91
MRGKSAVLLSLIMLIAGFLIPFSFQM	7.72
MRGKSAVLLSLIMLIAGFLISFDFQM	6.6
MRGKSAVLLSLIMLIAGFLISFEFQM	5.74
MRGKSAVLLSLIMLIAGFLISFHFQM	7.78
MRGKSAVLLSLIMLIAGFLISFLFQM	7.41
MRGKSAVLLSLIMLIAGFLISFMFQM	7.73
MRGKSAVLLSLIMLIAGFLISFNFQM	6.3
MRGKSAVLLSLIMLIAGFLISFPFQM	5.95
MRGKSAVLLSLIMLIAGFLISFQFQM	7.36
MRGKSAVLLSLIMLIAGFLISFSFKK	6.28
MRGKSAVLLSLIMLIAGFLISFSFQD	6.77
MRGKSAVLLSLIMLIAGFLISFSFQK	9.36
MRGKSAVLLSLIMLIAGFLISFTFQM	6.75
MRGKSAVLLSLIMLIAGFLISFVFQM	6.98
MRGKSAVLLSLIMLIAGFLISFYFQM	7.22
MRGKSAVLLSLIMLIAGFLITASFPTVTGPPFSFSFQM	8.88

Sequence	AmyQ secretion efficiency
MRGKSAVLLSLIMLIAGFLIWFSFQM	7.55
MRGKSAVLLSLIMLIAGFLIYFSFQM	8.11
MRGKSAVLLSLIMLIAGFLQQSFSFQM	7.38
MRGKSIAVLLSLIMLIAGFLISFSFQM	5.87
MRGKSSTRKSLIMLIAGFLISFSFQM	7.08
MRGTSVVGFLSVLGLAAVFPLTAQAEKA	2.91
MRHKIIGRYQTSSGQIIIGNMIGGGGGSEATSK	7.7
MRHKIITFILAVVVIIIIGNMIGGGGGQEATSK	6.41
MRHKIITFILAVVVIIIIGNMIGGGGGSEAEDD	6.34
MRHKIITFILAVVVIIIIGNMIGGGGGSEATSE	3.29
MRHKIITFILAVVVIIIIGNMIGGGGGSEATSH	5.06
MRHKIITFILAVVVIIIIGNMIGGGGGSEATSK	5.87
MRHKIITFILAVVVIIIIGNMIGGGGGSEETSK	7.2
MRHKIITFILAVVVIIIIRKRKKRRGGSEATSK	4.98
MRHKSITFILAVVVIIIIGNMIGGGGGSEATSK	6.79
MRIFKKARKKRRKSFLIATVNVNTAHAAID	6.58
MRIFKKAVFVIMISFLIARRRKKRAHAAID	8.88
MRIFKKAVFVIMISFLIATVNVNTAHAAEE	1.56
MRIFKKAVFVIMISFLIATVNVNTAHAAID	3.53 and 3.56 and 3.38
MRIFKKAVFVIMISFLIATVNVNTAHAAIG	1.03
